The text below walks through data of PMC11218997, “Human cytomegalovirus deploys molecular mimicry to recruit VPS4A to sites of virus assembly” (PLOS Pathogens, 2024).

For assay [1], the target named is T1, VPS4A MIT domain (residues 1–84) (human, UniProt Q9UN37 1-84).
T1 chain: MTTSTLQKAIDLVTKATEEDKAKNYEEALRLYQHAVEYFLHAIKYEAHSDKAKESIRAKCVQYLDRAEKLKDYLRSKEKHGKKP
The experiment in a line: ITC.

For assay [2], the target named is T2, VPS4A MIT domain (residues 1–84) (human, UniProt Q9UN37 1-84).
T2 construct: human VPS4A, MIT domain, residues 1-84 of UniProt Q9UN37; cloned into pOPT3G with an N-terminal GST and a human rhinovirus 3C site; the tag was removed with 3C protease; also called VPS4 MIT domain; source: E. coli T7 Express lysY/Iq, purified (glutathione Sepharose, 3C cleavage, SEC); not shown: GST, N-terminal, cleaved
T2 sequence (looked up): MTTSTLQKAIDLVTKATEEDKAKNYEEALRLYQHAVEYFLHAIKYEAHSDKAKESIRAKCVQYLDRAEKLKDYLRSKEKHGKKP
The experiment in a line: ITC; titrants (GST-pUL71, GST-CHMP6 or peptides) titrated into VPS4A MIT domain in the cell; 25°C; 50 mM HEPES pH 8, 100 mM NaCl, 0.5 mM TCEP; 19×2 μL or 12×3 μL injections; one-site binding model. The following applies: both partners purified.

For assay [3], the system named is pUL71 (YN fusion, TB71-YN). The experiment in a line: Bimolecular fluorescence complementation in TB71-YN infected MRC-5 cells. The class given is cell-based, HCMV. The following applies: MRC-5 infected with TB71-YN, MOI 1, 5 dpi. The text has this:
HCMV strains AD169 [92], Toledo [93], Merlin [94], VR1814 [95] and TB40/E [96] and two clinical isolates (isolates 19 and 20, kindly provided by C. Sinzger, Ulm University Hospital, Germany) were used in this study. This panel was chosen as it covers the most commonly used cell culture passaged strains and two isolates that grow highly cell associated. In addition, bacmid derived viruses were used. Reconstituted virus from bacterial artificial chromosome (BAC) clone TB40-BAC4 of the endotheliotropic HCMV strain TB40/E (accession number EF999921.1.) served as wild type virus (WT) in this study. Generation and propagation of recombinant viruses, TBstop71 and TBrev71 have been described elsewhere. […] The recombinant virus TB71-YN used for bimolecular fluorescence complementation (BiFC) assay, was generated by markerless BAC mutagenesis from BAC clone TB40-BAC4 by inserting the sequences corresponding to a (GGGGS)2-linker sequence, the c-myc-tag and the N-terminal fragment of the yellow fluorescent protein (YFP) variant Citrine, comprising amino acids 1–173 (YN), before the stop codon of the UL71 open reading frame. […]

B1: GST-CHMP6 MIM2 (domain or fragment, human, UniProt Q96FZ7 166-181, looked up)
chain: EQIELPEVPSEPLPEK
notes: human CHMP6 MIM2; pGEX4T2, annealed primers pGEX CHMP6 MIM2 fwd and rev; also called GST-tagged CHMP6 MIM2 motif; source: E. coli, purified following bacterial expression; not shown: GST, N-terminal, kept
Consider B1, for which the Kd in assay [1] worked out at 15.3 µM. In addition, in assay [2], the Kd turned out to be 5.54 µM, the dH is -2.37 kcal/mol and the “stoichiometry N” value came to 0.84.

B2: YC-VPS4A-FLAG: VPS4A-FLAG fused to the C-terminal half of Citrine (protein)
chain: MTTSTLQKAIDLVTKATEEDKAKNYEEALRLYQHAVEYFLHAIKYEAHSDKAKESIRAKCVQYLDRAEKLKDYLRSKEKHGKKPVKENQSEGKGSDSDSEGDNPEKKKLQEQLMGAVVMEKPNIRWNDVAGLEGAKEALKEAVILPIKFPHLFTGKRTPWRGILLFGPPGTGKSYLAKAVATEANNSTFFSVSSSDLMSKWLGESEKLVKNLFELARQHKPSIIFIDEVDSLCGSRNENESEAARRIKTEFLVQMQGVGNNNDGTLVLGATNIPWVLDSAIRRRFEKRIYIPLPEEAARAQMFRLHLGSTPHNLTDANIHELARKTEGYSGADISIIVRDSLMQPVRKVQSATHFKKVCGPSRTNPSMMIDDLLTPCSPGDPGAMEMTWMDVPGDKLLEPVVCMSDMLRSLATTRPTVNADDLLKVKKFSEDFGQES
modifications: left off: Citrine residues 156-239 with A206K (YC), N-terminal, kept | FLAG, C-terminal, kept
As for B2, the “Citrine fluorescence (BiFC)” value in assay [3] is “Citrine fluorescence was detected”.

B3: YC-VPS4A-FLAG-L64D (protein)
chain: MTTSTLQKAIDLVTKATEEDKAKNYEEALRLYQHAVEYFLHAIKYEAHSDKAKESIRAKCVQYDDRAEKLKDYLRSKEKHGKKPVKENQSEGKGSDSDSEGDNPEKKKLQEQLMGAVVMEKPNIRWNDVAGLEGAKEALKEAVILPIKFPHLFTGKRTPWRGILLFGPPGTGKSYLAKAVATEANNSTFFSVSSSDLMSKWLGESEKLVKNLFELARQHKPSIIFIDEVDSLCGSRNENESEAARRIKTEFLVQMQGVGNNNDGTLVLGATNIPWVLDSAIRRRFEKRIYIPLPEEAARAQMFRLHLGSTPHNLTDANIHELARKTEGYSGADISIIVRDSLMQPVRKVQSATHFKKVCGPSRTNPSMMIDDLLTPCSPGDPGAMEMTWMDVPGDKLLEPVVCMSDMLRSLATTRPTVNADDLLKVKKFSEDFGQES
modifications: left off: Citrine residues 156-239 with A206K (YC), N-terminal, kept | FLAG, C-terminal, kept
For the molecule B3, the “Citrine fluorescence (BiFC)” value in assay [3] is listed as “Citrine fluorescence was detected”.
